{"source": "patent US11499162B2", "about": "“Plants having increased tolerance to herbicides” (BASF SE, priority 2016, dated 2022)", "data": [{"assay_type": "biochemical", "details": "pH 7.2", "description": "EXAMPLE 3: Protein Purification. TriA and variants thereof were produced in E. coli BL21(DE3) Gold (Agilent Technologies, Germany). Therefore E. coli was transformed with appropriate pET24d N-HIS tag expression vector and chaperone plasmid pGro7 (chaperones groEL and groES). Bacterial strains were grown at 30° C. in 100 mL LB for 20 h and protein expression induced with 0.1 mM IPTG at 25° C. for 20 hs. Cells were harvested by centrifugation at 3000 rpm at 4° C. for 20 min, resuspended in Bug Buster protein extraction reagent (Novagen, Germany) according to manufactures instructions. Lysates were clarified by centrifugation. Samples of bovine serum albumin ([…]) were loaded onto each gel analyzed by densitometry to provide an internal standard. Protein determinations were verified using Coomassie protein assay dye, according to manufactures instruction (Thermo Scientific; USA). The HIS-tagged enzymes were purified by metal ion affinity chromatography using Ni-IDA 1000 kit (Macherey-Nagel, Germany) following manufactures instructions. Protein purity was accessed by SDS-PAGE using NuPAGE Novex 4-12% Bis-Tris pre-cast gels (Life Technologies; USA) stained with Coomassie Brilliant Blue (Serva, Germany). Protein concentrations were estimated by measuring absorbance at 280 nm using Lambda Bio+(Perkin Elmer, USA). EXAMPLE 4: Enzyme kinetics. Resting cell suspension containing triA gene were incubated with various azines, melamine and atrazine and the culture filtrate was analyzed by UPLC-HR-MS. Substrates were obtained either from Sigma-Aldrich or synthesized internally. Synthetic standards and enzyme reaction products were analysed by UPLC-HR-MS (Thermo/Dionex UPLC UltiMate3000 coupled to a QExactive high resolution mass spectrometer). A Waters Acquity HSS T3 column (2.1 mm; 100 mm; […]) was used with a mobile phase water/acetonitrile (0.1% formic acid) with a flow rate of […]. Enzymes were used solved 25 mM sodium phosphate buffer (pH 7.2) with substrate concentration in the range of 1 nM to 10 nM at 30° C. Over time, the original azine peak disappeared whereas the formed OH-Metabolite (reaction product) increased. The product was identified by determination of the exact formula and by analysis of the accurate MS-MS fragments. Moreover for some of the formed products authentic standards were co-eluted. Degradation in % was calculated against the cells harboring the empty vector as control.", "units": {"Degradation in % of 6-cyclopentyl-N4-(2,3,4,5,6-pentafluorophenyl)-1,3,5-triazine-2,4-diamine": "%", "Degradation in % of Melamine": "%"}, "values": [{"molecule": "D248EE251D: mutated TriA variant of SEQ ID NO: 2 (protein, Pseudomonas) MQTLSIQHGTLVTMDQYRRVLGDSWVHVQDGRIVALGVHAESVPPPADRVIDARGKVVLPGFINAHTHVNQILLRGGPSHGRQLYDWLFNVLYPGQKAMRPEDVAVAVRLYCAEAVRSGITTINDNADSAIYPGNIEAAMAVYGEVGVRVVYARMFFDRMDGRIQGYVDALKARSPQVELCSIMEETAVAKDRITALSDQYHGTAGGRISVWPAPAITPAVTVEGMRWAQAFARDRAVMWTLHMAESEHDDRLHWMSPAEYMECYGLLDERLQVAHCVYFDRKDVRLLHRHNVKVASQVVSNAYLGSGVAPVPEMVERGMAVGIGTDDGNCNDSVNMIGDMKFMAHIHRAVHRDADVLTPEKILEMATIDGARSLGMDHEIGSIETGKRADLILLDLRHPQTTPHHHLAATIVFQAYGNEVDTVLIDGNVVMENRRLSFLPPERELAFLEEAQSRATAILQRANMVANPAWRSL", "Degradation in % of 6-cyclopentyl-N4-(2,3,4,5,6-pentafluorophenyl)-1,3,5-triazine-2,4-diamine": 2, "Degradation in % of Melamine": 1}, {"molecule": "S301A: mutated TriA variant of SEQ ID NO: 2 (protein, Pseudomonas) MQTLSIQHGTLVTMDQYRRVLGDSWVHVQDGRIVALGVHAESVPPPADRVIDARGKVVLPGFINAHTHVNQILLRGGPSHGRQLYDWLFNVLYPGQKAMRPEDVAVAVRLYCAEAVRSGITTINDNADSAIYPGNIEAAMAVYGEVGVRVVYARMFFDRMDGRIQGYVDALKARSPQVELCSIMEETAVAKDRITALSDQYHGTAGGRISVWPAPAITPAVTVEGMRWAQAFARDRAVMWTLHMAESDHDERLHWMSPAEYMECYGLLDERLQVAHCVYFDRKDVRLLHRHNVKVASQVVANAYLGSGVAPVPEMVERGMAVGIGTDDGNCNDSVNMIGDMKFMAHIHRAVHRDADVLTPEKILEMATIDGARSLGMDHEIGSIETGKRADLILLDLRHPQTTPHHHLAATIVFQAYGNEVDTVLIDGNVVMENRRLSFLPPERELAFLEEAQSRATAILQRANMVANPAWRSL", "Degradation in % of 6-cyclopentyl-N4-(2,3,4,5,6-pentafluorophenyl)-1,3,5-triazine-2,4-diamine": 6, "Degradation in % of Melamine": 0}, {"molecule": "Q298C: mutated TriA variant of SEQ ID NO: 2 (protein, Pseudomonas) MQTLSIQHGTLVTMDQYRRVLGDSWVHVQDGRIVALGVHAESVPPPADRVIDARGKVVLPGFINAHTHVNQILLRGGPSHGRQLYDWLFNVLYPGQKAMRPEDVAVAVRLYCAEAVRSGITTINDNADSAIYPGNIEAAMAVYGEVGVRVVYARMFFDRMDGRIQGYVDALKARSPQVELCSIMEETAVAKDRITALSDQYHGTAGGRISVWPAPAITPAVTVEGMRWAQAFARDRAVMWTLHMAESDHDERLHWMSPAEYMECYGLLDERLQVAHCVYFDRKDVRLLHRHNVKVASCVVSNAYLGSGVAPVPEMVERGMAVGIGTDDGNCNDSVNMIGDMKFMAHIHRAVHRDADVLTPEKILEMATIDGARSLGMDHEIGSIETGKRADLILLDLRHPQTTPHHHLAATIVFQAYGNEVDTVLIDGNVVMENRRLSFLPPERELAFLEEAQSRATAILQRANMVANPAWRSL", "Degradation in % of 6-cyclopentyl-N4-(2,3,4,5,6-pentafluorophenyl)-1,3,5-triazine-2,4-diamine": 23, "Degradation in % of Melamine": 100}, {"molecule": "Q298T: mutated TriA variant of SEQ ID NO: 2 (protein, Pseudomonas) MQTLSIQHGTLVTMDQYRRVLGDSWVHVQDGRIVALGVHAESVPPPADRVIDARGKVVLPGFINAHTHVNQILLRGGPSHGRQLYDWLFNVLYPGQKAMRPEDVAVAVRLYCAEAVRSGITTINDNADSAIYPGNIEAAMAVYGEVGVRVVYARMFFDRMDGRIQGYVDALKARSPQVELCSIMEETAVAKDRITALSDQYHGTAGGRISVWPAPAITPAVTVEGMRWAQAFARDRAVMWTLHMAESDHDERLHWMSPAEYMECYGLLDERLQVAHCVYFDRKDVRLLHRHNVKVASTVVSNAYLGSGVAPVPEMVERGMAVGIGTDDGNCNDSVNMIGDMKFMAHIHRAVHRDADVLTPEKILEMATIDGARSLGMDHEIGSIETGKRADLILLDLRHPQTTPHHHLAATIVFQAYGNEVDTVLIDGNVVMENRRLSFLPPERELAFLEEAQSRATAILQRANMVANPAWRSL", "Degradation in % of 6-cyclopentyl-N4-(2,3,4,5,6-pentafluorophenyl)-1,3,5-triazine-2,4-diamine": 0, "Degradation in % of Melamine": 63}, {"molecule": "Q298N: mutated TriA variant of SEQ ID NO: 2 (protein, Pseudomonas) MQTLSIQHGTLVTMDQYRRVLGDSWVHVQDGRIVALGVHAESVPPPADRVIDARGKVVLPGFINAHTHVNQILLRGGPSHGRQLYDWLFNVLYPGQKAMRPEDVAVAVRLYCAEAVRSGITTINDNADSAIYPGNIEAAMAVYGEVGVRVVYARMFFDRMDGRIQGYVDALKARSPQVELCSIMEETAVAKDRITALSDQYHGTAGGRISVWPAPAITPAVTVEGMRWAQAFARDRAVMWTLHMAESDHDERLHWMSPAEYMECYGLLDERLQVAHCVYFDRKDVRLLHRHNVKVASNVVSNAYLGSGVAPVPEMVERGMAVGIGTDDGNCNDSVNMIGDMKFMAHIHRAVHRDADVLTPEKILEMATIDGARSLGMDHEIGSIETGKRADLILLDLRHPQTTPHHHLAATIVFQAYGNEVDTVLIDGNVVMENRRLSFLPPERELAFLEEAQSRATAILQRANMVANPAWRSL", "Degradation in % of 6-cyclopentyl-N4-(2,3,4,5,6-pentafluorophenyl)-1,3,5-triazine-2,4-diamine": 0, "Degradation in % of Melamine": 5}, {"molecule": "Q298S: mutated TriA variant of SEQ ID NO: 2 (protein, Pseudomonas) MQTLSIQHGTLVTMDQYRRVLGDSWVHVQDGRIVALGVHAESVPPPADRVIDARGKVVLPGFINAHTHVNQILLRGGPSHGRQLYDWLFNVLYPGQKAMRPEDVAVAVRLYCAEAVRSGITTINDNADSAIYPGNIEAAMAVYGEVGVRVVYARMFFDRMDGRIQGYVDALKARSPQVELCSIMEETAVAKDRITALSDQYHGTAGGRISVWPAPAITPAVTVEGMRWAQAFARDRAVMWTLHMAESDHDERLHWMSPAEYMECYGLLDERLQVAHCVYFDRKDVRLLHRHNVKVASSVVSNAYLGSGVAPVPEMVERGMAVGIGTDDGNCNDSVNMIGDMKFMAHIHRAVHRDADVLTPEKILEMATIDGARSLGMDHEIGSIETGKRADLILLDLRHPQTTPHHHLAATIVFQAYGNEVDTVLIDGNVVMENRRLSFLPPERELAFLEEAQSRATAILQRANMVANPAWRSL", "Degradation in % of 6-cyclopentyl-N4-(2,3,4,5,6-pentafluorophenyl)-1,3,5-triazine-2,4-diamine": 0, "Degradation in % of Melamine": 83}, {"molecule": "S301T: mutated TriA variant of SEQ ID NO: 2 (protein, Pseudomonas) MQTLSIQHGTLVTMDQYRRVLGDSWVHVQDGRIVALGVHAESVPPPADRVIDARGKVVLPGFINAHTHVNQILLRGGPSHGRQLYDWLFNVLYPGQKAMRPEDVAVAVRLYCAEAVRSGITTINDNADSAIYPGNIEAAMAVYGEVGVRVVYARMFFDRMDGRIQGYVDALKARSPQVELCSIMEETAVAKDRITALSDQYHGTAGGRISVWPAPAITPAVTVEGMRWAQAFARDRAVMWTLHMAESDHDERLHWMSPAEYMECYGLLDERLQVAHCVYFDRKDVRLLHRHNVKVASQVVTNAYLGSGVAPVPEMVERGMAVGIGTDDGNCNDSVNMIGDMKFMAHIHRAVHRDADVLTPEKILEMATIDGARSLGMDHEIGSIETGKRADLILLDLRHPQTTPHHHLAATIVFQAYGNEVDTVLIDGNVVMENRRLSFLPPERELAFLEEAQSRATAILQRANMVANPAWRSL", "Degradation in % of 6-cyclopentyl-N4-(2,3,4,5,6-pentafluorophenyl)-1,3,5-triazine-2,4-diamine": 1, "Degradation in % of Melamine": 0}]}]}
